Earlier results on one sequence are cited in article PMC12283743.

In this series the test system is H. pylori surface recombinant antigen (not named) (Helicobacter pylori). The settings on record: target of the Kd cut off in the material (recombinant antigen or cells); Sensor only: bacteria incubated 40 min on the aptamer electrode, detection in PBS pH 7.0 (0.1 M for CV), room temperature; conditions of the cited Kd not given.

In general, Kd refers to the concentration at which binding is half-saturated. As for “AGTGTGCTCTTCTCAGGTCTCGGCGCGGTTGTGGGTACCTAGGGTTGTTGTTGCTTCTCAGCAGTGTCTCAGCATACGCA [H. pylori aptamer]”, the dissociation constant (Kd) was 26 nM.
